Reference: publication PMC10643566, “Insights into the mechanism of SARS-CoV-2 main protease autocatalytic maturation from model precursors” (Communications Biology, 2023)

Assays:
[1] = biological target: mature MPro^E290A (SARS-CoV-2); assay: enzyme kinetics (K_dimer from kcat/Km and the slope of rate vs the square of the protein concentration); FRET substrate at 200 µM, buffer B (25 mM Tris-HCl, pH 7, 50 mM NaCl, 1 mM TCEP), 28 °C; kcat/Km determined with equimolar GC373; dimer to monomers
[2] = biological target: mature MPro^R298A (SARS-CoV-2); assay: as above

Substance	Kd [1] [µM]	Kd [2] [µM]
mature MPro^E290A (enzyme)	353	
mature MPro^R298A (enzyme)		7.13
